# US20240093240, “GENE FUNCTION CONTROL BY NOVEL GUIDE NUCLEIC ACID MECHANISM” (NATIONAL UNIVERSITY CORPORATION KOBE UNIVERSITY, published 2024)
# T1: RsAgo (UniProt A4WYU7 A4WYU7:1-777)
# T1 sequence: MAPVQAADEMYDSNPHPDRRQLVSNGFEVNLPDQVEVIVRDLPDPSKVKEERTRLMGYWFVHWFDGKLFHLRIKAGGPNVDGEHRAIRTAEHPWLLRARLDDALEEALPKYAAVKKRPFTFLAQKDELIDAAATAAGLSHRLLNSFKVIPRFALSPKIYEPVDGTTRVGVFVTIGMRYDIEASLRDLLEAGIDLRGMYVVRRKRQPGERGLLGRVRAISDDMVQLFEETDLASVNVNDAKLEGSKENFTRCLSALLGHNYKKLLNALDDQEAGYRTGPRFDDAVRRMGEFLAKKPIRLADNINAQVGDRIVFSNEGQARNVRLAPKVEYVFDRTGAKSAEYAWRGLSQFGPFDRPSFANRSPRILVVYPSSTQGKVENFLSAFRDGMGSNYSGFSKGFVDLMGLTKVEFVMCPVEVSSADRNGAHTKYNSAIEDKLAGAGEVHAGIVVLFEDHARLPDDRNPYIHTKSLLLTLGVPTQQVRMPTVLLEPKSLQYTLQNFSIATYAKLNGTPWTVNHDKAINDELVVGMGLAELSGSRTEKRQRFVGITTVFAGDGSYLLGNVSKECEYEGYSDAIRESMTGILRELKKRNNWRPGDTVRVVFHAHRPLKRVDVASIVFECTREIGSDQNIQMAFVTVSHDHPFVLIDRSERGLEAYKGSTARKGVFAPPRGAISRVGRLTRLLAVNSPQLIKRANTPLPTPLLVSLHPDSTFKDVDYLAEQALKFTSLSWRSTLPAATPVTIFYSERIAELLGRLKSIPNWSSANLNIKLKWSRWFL
# B1: ssRNA 18 nt 5'-phosphate guide ; bubble target, 18 nt unpaired (ssRNA ; structured_DNA)
# RNA: UUACAACCUACUACCUCG
# DNA 1: GGATAACAATTCCCCTCTAGAAGTGGTTCGTGCTTCAACATGGGTCATCACCATCATC
# DNA 2: GATGATGGTGATGACCCATGCGAGGTAGTAGGTTGTAACTAGAGGGGAATTGTTATCC
# modifications: 5'-phosphate
# B2: ssRNA 18 nt 5'-phosphate guide ; fully double stranded target (ssRNA ; dsDNA)
# RNA: UUACAACCUACUACCUCG
# DNA 1: GGATAACAATTCCCCTCTAGTTACAACCTACTACCTCGCATGGGTCATCACCATCATC
# DNA 2: B1 DNA 2
# modifications: 5'-phosphate
# B3: ssRNA 18 nt 5'-phosphate guide (ssRNA)
# RNA: UUACAACCUACUACCUCG
# modifications: 5'-phosphate
# B4: ssRNA 18 nt 5'-OH (ssRNA)
# RNA: UUACAACCUACUACCUCG
# B5: ssDNA 18 nt (ssDNA)
# DNA: CGAGGTAGTAGGTTGTAA
# Experiments:
# [1] = molecular target: T1, RsAgo; test: EMSA; 500 nM RsAgo, 100 nM guide, 100-1000 nM target; 5 mM MgCl2, 25 C; conditions: tag removed by Ulp1 protease; label: 3'-FAM; duplex with 18 nt mismatched bubble over the target site
# Description: (§1) The purified protein (final 500 nM) and labelled guide RNA (final 100 nM) were mixed in the presence of the above reaction buffer and incubated for 15 minutes at 25° C. to form a complex. The target DNA was added (final 100 to 1000 nM) thereto.
# [2] = molecular target: T1, RsAgo; test: EMSA; cannot bind fully double stranded DNA on its own; 5 mM MgCl2, 25 C; conditions: tag removed by Ulp1 protease; label: 3'-FAM
# Description: as §1
# [3] = molecular target: T1, RsAgo; test: EMSA; high affinity to 5'-P ssRNA; 5 mM MgCl2, 200 mM NaCl, 25 C; conditions: tag removed by Ulp1 protease; label: 3'-FAM
# Description: (§2) The purified protein and synthetic oligonucleotide were mixed in the presence of the above reaction buffer and incubated for 20 minutes at 25° C. […] Detection was performed with Blue light LED.
# [4] = molecular target: T1, RsAgo; test: EMSA; 20 mM HEPES-KOH pH 7.5, 200 mM NaCl, 5 mM MgCl2, 25 C; conditions: tag removed by Ulp1 protease
# Description: as §2
binder,measurement,setting,value
B1,binding result,[1],binds
B2,binding result,[2],no binding
B3,binding result,[3],binds
B4,binding result,[4]; label: 3'-FAM,binds
B5,binding result,[4]; label: 5'-FAM,binds
